According to US20170283458A1, “COLLAGEN-BINDING SYNTHETIC PEPTIDOGLYCANS FOR WOUND HEALING” (Symic Biomedical, Inc., priority 2009, published 2017):
Ends that are not written are not given here.

Experiments:
collagen type III = molecular target: T1, collagen type III (Homo sapiens, UniProt P02461); assay: Viscoelastic characterization of collagen III containing gels; format: biochemical; details: 1.5 mg/mL collagen (90% collagen III); 1:1 and 5:1 molar ratios
T1 construct: purchased Millipore
T1 sequence (P02461 154-1221 limits assumed): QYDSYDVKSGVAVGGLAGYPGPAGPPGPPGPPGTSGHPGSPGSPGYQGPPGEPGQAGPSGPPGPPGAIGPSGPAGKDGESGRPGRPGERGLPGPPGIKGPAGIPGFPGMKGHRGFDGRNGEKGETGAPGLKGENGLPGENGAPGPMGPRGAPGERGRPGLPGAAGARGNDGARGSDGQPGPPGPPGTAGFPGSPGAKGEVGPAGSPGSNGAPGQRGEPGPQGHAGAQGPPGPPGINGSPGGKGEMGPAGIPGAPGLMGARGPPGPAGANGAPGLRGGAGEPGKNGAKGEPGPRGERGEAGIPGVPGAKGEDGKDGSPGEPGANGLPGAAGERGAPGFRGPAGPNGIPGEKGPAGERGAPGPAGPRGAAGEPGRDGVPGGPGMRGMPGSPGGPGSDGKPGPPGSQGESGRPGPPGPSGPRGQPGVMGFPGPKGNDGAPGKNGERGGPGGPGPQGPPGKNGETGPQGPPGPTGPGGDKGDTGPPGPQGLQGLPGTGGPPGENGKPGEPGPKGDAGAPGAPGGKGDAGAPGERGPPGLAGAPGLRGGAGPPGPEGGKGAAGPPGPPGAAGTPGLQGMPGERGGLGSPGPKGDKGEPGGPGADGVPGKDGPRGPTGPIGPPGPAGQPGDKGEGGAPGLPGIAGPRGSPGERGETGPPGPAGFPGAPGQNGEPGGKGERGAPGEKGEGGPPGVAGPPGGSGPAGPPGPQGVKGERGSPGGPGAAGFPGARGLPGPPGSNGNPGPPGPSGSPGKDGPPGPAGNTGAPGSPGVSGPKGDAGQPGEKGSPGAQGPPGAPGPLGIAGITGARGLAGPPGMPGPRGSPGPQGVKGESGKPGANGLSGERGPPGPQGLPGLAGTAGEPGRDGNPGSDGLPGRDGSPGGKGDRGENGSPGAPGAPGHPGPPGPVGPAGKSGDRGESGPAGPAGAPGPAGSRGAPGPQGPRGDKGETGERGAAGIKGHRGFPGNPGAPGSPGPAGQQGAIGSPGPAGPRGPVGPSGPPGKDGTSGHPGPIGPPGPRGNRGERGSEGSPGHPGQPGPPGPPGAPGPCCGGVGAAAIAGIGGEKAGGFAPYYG
Method: Gels containing type III collagen were prepared as in EXAMPLE 16 with the following modifications: treated and untreated gel solutions were prepared using a collagen concentration of 1.5 mg/mL (90% collagen III (Millipore), 10% collagen I), 200 μL samples were pipetted onto 20 mm diameter wettable surfaces of hydrophobic printed slides. These solutions were allowed to gel at 37° C. for 24 hours. Gels were formed from collagen alone, collagen treated with dermatan sulfate (1:1 and 5:1 molar ratio), and collagen treated with the collagen III-binding peptides alone (GSIT and KELN, 5:1 molar ratio) served as controls.

collagen III = molecular target: T2, collagen III (Homo sapiens, UniProt P02461); assay: Cryo-SEM measurements on collagen III, void space; format: biochemical; details: 1 mg/mL collagen (90% collagen III), 1:1 collagen:peptidoglycan
T2 construct: purchased Millipore
T2 sequence (P02461 154-1221 limits assumed): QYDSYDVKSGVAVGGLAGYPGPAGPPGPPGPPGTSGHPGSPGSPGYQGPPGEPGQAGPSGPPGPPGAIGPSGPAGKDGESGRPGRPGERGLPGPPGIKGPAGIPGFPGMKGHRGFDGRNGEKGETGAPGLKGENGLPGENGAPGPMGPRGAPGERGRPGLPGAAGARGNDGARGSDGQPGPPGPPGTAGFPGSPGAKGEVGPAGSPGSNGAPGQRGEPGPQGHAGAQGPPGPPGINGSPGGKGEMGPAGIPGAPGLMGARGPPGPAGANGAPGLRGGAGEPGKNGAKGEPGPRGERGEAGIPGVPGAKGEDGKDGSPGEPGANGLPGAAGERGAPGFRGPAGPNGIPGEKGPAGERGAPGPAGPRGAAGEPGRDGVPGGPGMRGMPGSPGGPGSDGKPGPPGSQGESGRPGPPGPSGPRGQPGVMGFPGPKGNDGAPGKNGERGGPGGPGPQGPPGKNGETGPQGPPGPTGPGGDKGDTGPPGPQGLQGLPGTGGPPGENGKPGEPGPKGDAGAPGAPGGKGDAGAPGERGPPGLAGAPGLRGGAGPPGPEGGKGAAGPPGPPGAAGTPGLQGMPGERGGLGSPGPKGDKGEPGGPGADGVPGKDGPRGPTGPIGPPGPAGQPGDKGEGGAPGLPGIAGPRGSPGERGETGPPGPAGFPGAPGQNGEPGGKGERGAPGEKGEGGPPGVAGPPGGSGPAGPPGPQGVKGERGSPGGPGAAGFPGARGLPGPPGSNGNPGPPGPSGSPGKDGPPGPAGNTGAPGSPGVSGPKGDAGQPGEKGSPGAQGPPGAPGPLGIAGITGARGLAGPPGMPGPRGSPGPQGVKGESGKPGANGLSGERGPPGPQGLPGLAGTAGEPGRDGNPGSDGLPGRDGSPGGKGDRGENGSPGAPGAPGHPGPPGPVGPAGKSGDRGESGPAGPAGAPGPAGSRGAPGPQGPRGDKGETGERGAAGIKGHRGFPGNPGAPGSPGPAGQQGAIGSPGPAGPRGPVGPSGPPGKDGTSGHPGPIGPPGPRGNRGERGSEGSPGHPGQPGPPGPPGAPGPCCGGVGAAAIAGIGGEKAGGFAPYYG
Method: Gels for cryo-SEM were formed, as in EXAMPLE 16, directly on the SEM stage and incubated at 37° C. overnight with the following modifications. The collagen concentration was 1 mg/mL (90% collagen III, 10% collagen I). The collagen:DS ratio was 1:1 and the collagen:peptidoglycan ratio was 1:1. The images were recorded as in EXAMPLE 21. The ratio of void volume to fibril volume was measured using a variation of the method in EXAMPLE 21.

[1] = tested on: Human aortic smooth muscle cells; assay: Collagen remodeling: hydroxyproline content in medium of cell-seeded collagen gels; format: cell-based; details: vs collagen alone; cultures up to 30 days
Method: Following a method by Grassl, et al. (Grassl, et al., Journal of Biomedical Materials Research 2002, 60, (4), 607-612), which is herein incorporated in its entirety, collagen gels with or without synthetic PG mimics were formed as described in EXAMPLE 16. Human aortic smooth muscle cells (Cascade Biologics, Portland, Oreg.) were seeded within collagen gels by adding 4×10^6 cells/mL to the neutralized collagen solution prior to incubation. The cell-collagen solutions were pipetted into an 8-well Lab-Tek chamber slide and incubated in a humidified 37° C. and 5% CO2 incubator. After gelation, the cell-collagen gels will be covered with 1 mL Medium 231 as prescribed by Cascade. Every 3-4 days, the medium was removed from the samples and the hydroxyproline content measured by a standard hydroxyproline assay (Reddy, 1996).
To measure degraded collagen in the supernatant medium, the sample was lyophilized, the sample hydrolyzed in 2M NaOH at 120° C. for 20 min. After cooling, free hydroxyproline was oxidized by adding chloramine-T (Sigma) and reacting for 25 min at room temperature. Ehrlich's aldehyde reagent (Sigma) was added and allowed to react for 20 min at 65° C. and followed by reading the absorbance at 550 nm on an M-5 spectrophotometer (Molecular Devices). […] Cultures were incubated for up to 30 days and three samples of each treatment measured. […]

collagen = molecular target: T3, collagen (Bos taurus, UniProt P02453+P02465); assay: Fibrillogenesis turbidity assay (absorbance at 313 nm); format: biochemical; details: 1:1 collagen:additive molar ratio, vs collagen alone
T3 construct: purchased Inamed, Freemont, Calif; Nutragen
T3 sequence (P02453 162-1217 limits assumed): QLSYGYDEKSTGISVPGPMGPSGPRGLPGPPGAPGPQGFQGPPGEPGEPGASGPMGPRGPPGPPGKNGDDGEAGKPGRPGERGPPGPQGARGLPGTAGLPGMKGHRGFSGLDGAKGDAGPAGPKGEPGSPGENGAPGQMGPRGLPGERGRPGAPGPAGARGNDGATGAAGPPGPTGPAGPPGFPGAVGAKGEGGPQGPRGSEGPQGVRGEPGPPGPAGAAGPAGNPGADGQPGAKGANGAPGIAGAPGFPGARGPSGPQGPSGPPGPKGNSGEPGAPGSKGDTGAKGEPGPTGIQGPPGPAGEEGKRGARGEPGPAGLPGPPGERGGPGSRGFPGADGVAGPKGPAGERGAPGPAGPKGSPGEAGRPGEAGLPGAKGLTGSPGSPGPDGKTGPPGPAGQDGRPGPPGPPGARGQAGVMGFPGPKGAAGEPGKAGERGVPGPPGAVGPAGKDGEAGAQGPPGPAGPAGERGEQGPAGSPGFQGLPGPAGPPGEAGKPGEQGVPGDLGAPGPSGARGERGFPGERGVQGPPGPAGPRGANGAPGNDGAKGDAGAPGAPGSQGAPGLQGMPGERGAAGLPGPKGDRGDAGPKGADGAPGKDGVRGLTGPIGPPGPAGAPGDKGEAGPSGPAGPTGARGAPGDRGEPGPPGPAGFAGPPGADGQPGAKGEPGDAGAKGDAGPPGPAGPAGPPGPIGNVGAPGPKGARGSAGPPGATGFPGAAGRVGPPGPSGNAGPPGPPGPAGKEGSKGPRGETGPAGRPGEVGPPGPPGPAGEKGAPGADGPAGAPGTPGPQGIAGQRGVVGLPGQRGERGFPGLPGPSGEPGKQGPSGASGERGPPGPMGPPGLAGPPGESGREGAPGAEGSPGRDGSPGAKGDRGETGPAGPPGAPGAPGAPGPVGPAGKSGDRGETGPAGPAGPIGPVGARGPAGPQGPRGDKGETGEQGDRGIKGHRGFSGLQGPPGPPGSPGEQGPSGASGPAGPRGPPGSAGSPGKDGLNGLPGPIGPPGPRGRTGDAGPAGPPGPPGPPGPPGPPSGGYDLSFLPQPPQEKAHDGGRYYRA
T3 sequence (P02465 80-1117 limits assumed): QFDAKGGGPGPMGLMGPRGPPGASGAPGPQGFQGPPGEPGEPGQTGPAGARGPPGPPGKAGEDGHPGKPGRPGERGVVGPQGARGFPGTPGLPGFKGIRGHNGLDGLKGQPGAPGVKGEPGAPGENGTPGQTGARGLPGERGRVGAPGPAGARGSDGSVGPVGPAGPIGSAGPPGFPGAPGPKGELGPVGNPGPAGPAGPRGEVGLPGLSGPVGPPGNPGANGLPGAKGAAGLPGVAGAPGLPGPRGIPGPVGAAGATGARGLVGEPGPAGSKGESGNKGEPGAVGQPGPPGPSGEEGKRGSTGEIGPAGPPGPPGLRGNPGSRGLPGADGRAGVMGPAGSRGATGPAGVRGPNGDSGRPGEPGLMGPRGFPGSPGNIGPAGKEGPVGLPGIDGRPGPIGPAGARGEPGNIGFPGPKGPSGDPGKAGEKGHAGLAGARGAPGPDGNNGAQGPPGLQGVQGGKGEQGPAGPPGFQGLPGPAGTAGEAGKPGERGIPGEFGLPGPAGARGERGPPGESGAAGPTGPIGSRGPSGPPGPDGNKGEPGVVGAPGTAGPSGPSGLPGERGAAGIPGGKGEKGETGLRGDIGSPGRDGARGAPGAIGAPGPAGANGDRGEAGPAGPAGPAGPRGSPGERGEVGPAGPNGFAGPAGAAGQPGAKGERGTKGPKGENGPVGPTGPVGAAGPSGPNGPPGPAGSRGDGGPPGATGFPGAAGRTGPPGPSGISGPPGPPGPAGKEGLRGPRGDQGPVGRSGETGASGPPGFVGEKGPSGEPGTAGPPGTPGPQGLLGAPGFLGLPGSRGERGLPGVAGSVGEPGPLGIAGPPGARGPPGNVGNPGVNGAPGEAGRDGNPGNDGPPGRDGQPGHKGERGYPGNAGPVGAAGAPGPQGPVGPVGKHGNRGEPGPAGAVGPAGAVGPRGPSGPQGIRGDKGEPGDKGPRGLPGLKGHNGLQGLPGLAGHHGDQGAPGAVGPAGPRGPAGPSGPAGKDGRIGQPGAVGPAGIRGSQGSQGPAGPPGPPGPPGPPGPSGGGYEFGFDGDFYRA
Method: (§1) Gels were made with Nutragen collagen (Inamed, Freemont, Calif.) at a final concentration of 4 mg/mL collagen. Nutragen stock is 6.4 mg/mL in 10 mM HCl. Gel preparation was performed on ice, and fresh samples were made before each test. The collagen solution was adjusted to physiologic pH and salt concentration, by adding appropriate volumes of 10×PBS (phosphate buffered saline), 1×PBS, and 1M NaOH. For most experiments, samples of DS, decorin, DS-SILY, or DS-Dc13 were added at a 10:1 collagen:treatment molar ratio by a final 1×PBS addition (equal volumes across treatments) in which the test samples were dissolved at appropriate concentrations. In this way, samples are constantly kept at pH 7.4 and physiologic salt concentration. Collagen-alone samples received a 1×PBS addition with no sample dissolved. Fibrillogenesis will be induced by incubating neutralized collagen solutions at 37° C. overnight in a humidified chamber to avoid dehydration. Gel solutions with collagen:treatment molar ratios of other than 10:1 were prepared similarly.
Collagen fibrillogenesis was monitored by measuring turbidity related absorbance at 313 nm providing information on rate of fibrillogenesis and fibril diameter. Gel solutions were prepared as described in EXAMPLE 16 (4 mg/mL collagen, 10:1 collagen:treatment, unless otherwise indicated) and 50 uL/well were added at 4° C. to a 384-well plate. The plate was kept at 4° C. for 4 hours before initiating fibril formation. A SpectraMax M5 at 37° C. was used to measure absorbance at 313 nm at 30 s intervals for 6 hours.
A fibrillogenesis assay as described for DS-SILY, EXAMPLE 19, performed with the conjugate DS-Dc13.

[2] = tested on: Human coronary artery smooth muscle cells (HCA SMC); assay: Gel compaction by smooth muscle cells in collagen gels; format: cell-based; details: Days 3 and 5
Method: Human coronary artery smooth muscle cells (HCA SMC) (Cascade Biologics) were cultured in growth medium (Medium 231 supplemented with smooth muscle growth factor). Cells from passage 3 were used for all experiments. Differentiation medium (Medium 231 supplemented with 1% FBS and 1× pen/strep) was used for all experiments unless otherwise noted.
Collagen gels were prepared with each additive as described with the exception that the 1×PBS example addition was omitted to accommodate the addition of cells in media. After incubating on ice for 30 min, HCA SMCs in differentiation medium were added to the gel solutions to a final concentration of 1×10^6 cells/mL. Gels were formed in quadruplicate in 48-well non-tissue culture treated plates (Costar) for 6 hrs before adding 500 μL/well differentiation medium. Gels were freed from the well edges after 24 hrs. Medium was changed every 2-3 days and images for compaction were taken at the same time points using a Gel Doc System (Bio-Rad). The cross-sectional area of circular gels correlating to degree of compaction was determined using ImageJ software (NIH). Gels containing no cells were used as a negative control and cells in collagen gels absent additive were used as a positive control. […] By day 10 all gels had compacted to approximately 10% of the original gel area, and differences between additives were small.

Human dermal fibroblasts = assay: TGF-β1 production by human dermal fibroblasts (ELISA); format: cell-based; details: 1.4 μM treatment, 48 hours
Method: Human dermal fibroblasts (Cascade Biologics) were seeded onto 96-well tissue culture polystyrene plates at a seeding density of 1.83×10^3 cells/well. Cells adhered overnight and cell medium was aspirated. 100 μL/well of cell medium containing a final concentration of 1.4 μM treatment delivered from a concentrated solution of treatment in 1×PBS was added to the cells. After 48 hours, cell medium was removed and frozen at −80 C until further testing. TGF-β1 was measured by ELISA using a kit and protocol from R&D Systems.

collagen I = molecular target: T4, collagen I (Bos taurus, UniProt P02453+P02465); assay: Cryo-SEM measurements on collagen I, fibril diameter; format: biochemical; details: 4 mg/mL collagen, 10:1 collagen:treatment, cryo-SEM 20,000×
T4 construct: purchased Inamed, Freemont, Calif; Nutragen
T4 sequence (P02453 162-1217 limits assumed): as the sequence (P02453 162-1217 limits assumed) above
T4 sequence (P02465 80-1117 limits assumed): as the sequence (P02465 80-1117 limits assumed) above
Method: as §1
Gels for cryo-SEM were formed, as in EXAMPLE 16, directly on the SEM stage and incubated at 37° C. overnight. The stages were then secured in a cryo-holder and plunged into liquid nitrogen slush. Samples were then transferred to a Gatan Alto 2500 pre-chamber cooled to −170° C. under vacuum. A free-break surface was created with a cooled scalpel, and each sample evaporated under sublimation conditions for 20 min. The sample was coated by platinum sputter coating for 120 s. Samples were transferred to the cryo-stage at −130° C. and regions with similar orientation were imaged for comparison across treatments. Analysis of the images was performed to determine the fibril diameter distribution, presented in histograms adjacent the corresponding image in FIG. 14, and average fibril diameter, FIG. 17 an 18;. Fibril diameter was calculated using ImageJ software (NIH) measuring individual fibrils by hand (drawing a line across fibrils and measuring its length after properly setting the scale). At least 45 independent fibril measurement were recorded for average fibril diameter calculations.

Question: For “DS-KELN: dermatan sulfate conjugated to KELN peptide KELNLVYTGC (also: dermatan sulfate conjugate, site not given here)”, which “viscoelastic properties of gels formed with collagen type III” value (collagen type III) is on record?
Answer: can influence the viscoelastic properties of gels formed with collagen type III

Question: What about the void space (collagen III) of the same molecule?
Answer: decrease void space (increase fibril diameter and branching)

Question: With “DS-GSIT: dermatan sulfate conjugated to GSIT peptide GSITTIDVPWNVGC (also: dermatan sulfate conjugate, site not given here)” as the molecule, how does the “viscoelastic properties of gels formed with collagen type III” value (collagen type III) read?
Answer: can influence the viscoelastic properties of gels formed with collagen type III

Question: What about the void space (collagen III) of the same molecule?
Answer: decrease void space (increase fibril diameter and branching)

Question: For SYIRIADTNITGC [Dc13], which “collagen degradation measured by hydroxyproline content in cell medium” value [1] is on record?
Answer: greater collagen degradation compared to collagen alone

Question: And the effect on fibrillogenesis (collagen)?
Answer: little effect on fibrillogenesis compared to collagen alone

B1: decorin: proteoglycan known to influence collagen fibrillogenesis (protein, UniProt P07585 31-359, looked up)
Decorin: DEASGIGPEVPDDRDFEPSLGPVCPFRCQCHLRVVQCSDLGLDKVPKDLPPDTTLLDLQNNKITEIKDGDFKNLKNLHALILVNNKISKVSPGAFTPLVKLERLYLSKNQLKELPEKMPKTLQELRAHENEITKVRKVTFNGLNQMIVIELGTNPLKSSGIENGAFQGMKKLSYIRIADTNITSIPQGLPPSLTELHLDGNKISRVDAASLKGLNNLAKLGLSFNSISAVDNGSLANTPHLRELHLDNNKLTRVPGGLAEHKYIQVVYLHNNNISVVGSSDFCPPGHNTKKASYSGVSLFSNPVQYWEIQPSTFRCVYVRSAIQLGNYK
Question: For B1, which “gel compaction at early time points” value [2] is on record?
Answer: significantly compacted more than gels made of collagen alone or collagen with dermatan sulfate

Question: And the “TGF-β1 in cell medium” value (Human dermal fibroblasts)?
Answer: significantly decreased TGF-β1

Question: And the average fibril diameter (collagen I)?
Answer: significant decrease in average fibril diameter
